Assay results: patent US20250223359A1 (published 2025)
Numbering of substitutions follows the chain as printed.

B1: Human CD2 (recombinant extracellular domain, Avi-tagged) (receptor)
chain: KEITNALETWGALGQDINLDIPSFQMSDDIDDIKWEKTSDKKKIAQFRKEKETFKEKDTYKLFKNGTLKIKHLKTDDQDIYKVSIYDTKGKNVLEKIFDLKIQERVSKPKISWTCINTTLTCEVMNGTDPELNLYQDGKHLKLSQRVITHKWTTSLSAKFKCTAGNKVSKESSVEPVSCPEKGLD
modifications: site selectively biotinylated during expression (C-terminal Avi-Tag, BirA co-transfection)
notes: Produced in HEK293 cells; also called recombinant human CD2
B2: CD58_IgV (ligand)
chain: SQQIYGVVYGNVTFHVPSNVPLKEVLWKKQKDKVAELENSEFRAFSSFKNRVYLDTVSGSLTIYNLTSSDEDEYEMESPNITDTMKFFLYVLESGGGGSHHHHHHHH
notes: also called CD58 domain 1; IgV WT
B3: CD58 IgV V45C_M105C (ligand)
chain: B2 chain with V16C, M76C
notes: Disulfide-stabilized variant
B4: CD58 IgV V45C_M114C (ligand)
chain: B2 chain with V16C, M85C
notes: Disulfide-stabilized variant
B5: CD58 IgV V54C_G88C (ligand)
chain: B2 chain with V25C, G59C
notes: Disulfide-stabilized variant
B6: CD3hi TSP2 (R variant) (other)
heavy: EVQLVQSGAEVKKPGESLKISCKASGYSFTNYWMNWVRQMPGKGLEWMGMIHPSDSEIRLNQKFQGQVTLSVDKSIGTAYMQWSSLKASDTAMYYCSRWYYLSSPMDYWGQGTTVTVSSASTKGPSVFPLAPSSKSTSGGTAALGCLVKDYFPEPVTVSWNSGALTSGVHTFPAVLQSSGLYSLSSVVTVPSSSLGTQTYICNVNHKPSNTKVDKRVEPKSCGGGGSGGGGSEVQLVESGGGLVQPGGSLKLSCAASGFTFNTYAMNWVRQASGKGLEWVGRIRSKYNNYATYYADSVKDRFTISRDDSKSTLYLQMNSLKTEDTAVYYCVRHGNFGNSYVSWFAYWGQGTLVTVSSGGGGSGGGGSGGGGSGGGGSQAVVTQEPSLTVSPGGTVTLTCRSSTGAVTTSNYANWVQQKPGQAPRGLIGGTNKRAPWTPARFSGSLLGDKAALTLSGAQPEDEAEYFCALWYSNLWVFGGGTKLTVLGGGGSDKTHTCPPCPAPELLGGPSVFLFPPKPKDTLMISRTPEVTCVVVAVSHEDPEVKFNWYVDGVEVHNAKTKPREEQYASTYRVVSVLTVLHQDWLNGKEYKCKVSNKALAAPIEKTISKAKGQPREPQVCTLPPSREEMTKNQVSLSCAVKGFYPSDIAVEWESNGQPENNYKTTPPVLDSDGSFFLVSKLTVDKSRWQQGNVFSCSVMHEALHNHYTQKSLSLSPGK
light: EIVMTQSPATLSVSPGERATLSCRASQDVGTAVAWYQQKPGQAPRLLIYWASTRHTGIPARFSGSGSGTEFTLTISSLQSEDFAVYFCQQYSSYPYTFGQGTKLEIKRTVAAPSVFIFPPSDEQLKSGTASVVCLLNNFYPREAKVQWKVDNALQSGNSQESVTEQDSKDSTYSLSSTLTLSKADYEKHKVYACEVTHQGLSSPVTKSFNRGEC
chain: SQQIYGVVYGNVTFHVPSNVPLKEVLWKKQKDKVAELENSEFRAFSSFKNRVYLDTVSGSLTIYNLTSSDEDEYEMESPNITDTMKFFLYVLESGGGGSDKTHTCPPCPAPELLGGPSVFLFPPKPKDTLMISRTPEVTCVVVAVSHEDPEVKFNWYVDGVEVHNAKTKPREEQYASTYRVVSVLTVLHQDWLNGKEYKCKVSNKALAAPIEKTISKAKGQPREPQVYTLPPCREEMTKNQVSLWCLVKGFYPSDIAVEWESNGQPENNYKTTPPVLDSDGSFFLYSKLTVDKSRWQQGNVFSCSVMHEALHNRYTQKSLSLSPGK
notes: also called CD19_NEG218_CD3_16nM-CD58 Trispecific; αCD19(NEG218)-αCD3-CD58IgV
B7: CD3hi TSP1 (R variant) (other)
heavy: QVQLVQSGAEVKKPGASVKVSCKASGYTFTTYWIQWVRQAPGQRLEWMGAVYPGDADTRYTQKFQGRVTLTADRSASTAYMELSSLRSEDTAVYYCGRDAGLEYYALDYWGQGTLVTVSSASTKGPSVFPLAPSSKSTSGGTAALGCLVKDYFPEPVTVSWNSGALTSGVHTFPAVLQSSGLYSLSSVVTVPSSSLGTQTYICNVNHKPSNTKVDKRVEPKSCGGGGSGGGGSEVQLVESGGGLVQPGGSLKLSCAASGFTFNTYAMNWVRQASGKGLEWVGRIRSKYNNYATYYADSVKDRFTISRDDSKSTLYLQMNSLKTEDTAVYYCVRHGNFGNSYVSWFAYWGQGTLVTVSSGGGGSGGGGSGGGGSGGGGSQAVVTQEPSLTVSPGGTVTLTCRSSTGAVTTSNYANWVQQKPGQAPRGLIGGTNKRAPWTPARFSGSLLGDKAALTLSGAQPEDEAEYFCALWYSNLWVFGGGTKLTVLGGGGSDKTHTCPPCPAPELLGGPSVFLFPPKPKDTLMISRTPEVTCVVVAVSHEDPEVKFNWYVDGVEVHNAKTKPREEQYASTYRVVSVLTVLHQDWLNGKEYKCKVSNKALAAPIEKTISKAKGQPREPQVCTLPPSREEMTKNQVSLSCAVKGFYPSDIAVEWESNGQPENNYKTTPPVLDSDGSFFLVSKLTVDKSRWQQGNVFSCSVMHEALHNHYTQKSLSLSPGK
light: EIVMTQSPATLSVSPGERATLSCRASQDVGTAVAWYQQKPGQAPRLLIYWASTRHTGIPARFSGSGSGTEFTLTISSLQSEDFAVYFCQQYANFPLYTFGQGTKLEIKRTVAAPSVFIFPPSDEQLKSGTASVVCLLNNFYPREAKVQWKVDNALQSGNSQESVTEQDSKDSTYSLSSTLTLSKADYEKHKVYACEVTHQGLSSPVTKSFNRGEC
chain: B6 chain
notes: also called CD19_NEG258_CD3_16nM-CD58 Trispecific; αCD19(NEG258)-αCD3(16 nM)-αCD58IgV
B8: CD58 Full ECD (ligand)
chain: SQQIYGVVYGNVTFHVPSNVPLKEVLWKKQKDKVAELENSEFRAFSSFKNRVYLDTVSGSLTIYNLTSSDEDEYEMESPNITDTMKFFLYVLESLPSPTLTCALTNGSIEVQCMIPEHYNSHRGLIMYSWDCPMEQCKRNSTSIYFKMENDLPQKIQCTLSNPLFNTTSSIILTTCIPSSGHSRHRGGGGSHHHHHHHH

How the values were obtained:
CD58 Full ECD = molecular target: B8; assay: ITC; 100 uM CD2 titrated into 10 uM CD58 variant in HBS
Experimental: (§1) To ensure the binding affinity remained uncompromised by the additional of the stabilizing disulfide variance, isothermal calorimetry (ITC) was performed on the resulting recombinant CD58 proteins to determine their apparent KD and binding stoicheometry (n) to recombinant human CD2.
(§2) Briefly, recombinant human CD2 and recombinant human CD58 variants were dialyzed into HEPES-buffered saline (HBS). CD2 was diluted to final concentration of 100 μM, CD58 variants were diluted to 10 μM. CD2 was titrated into 10 μM of CD58 variants via multiple injections and ΔH (kcal/mole) determined using a MicroCal VP-ITC isothermal titration calorimeter (Malvern). Titrations of CD2 into HBS were used as a reference and KD and n determined from the resulting data.

[1] = molecular target: B1; assay: as above
Experimental: as §1, §2

human CD19 [2] = molecular target: T1, human CD19 (human, UniProt P15391 20-556); assay: flow cytometry on murine 300.19 cells overexpressing human CD19; serial dilutions; anti-human Fc Alexa-647 secondary
T1 construct: whole, on cells; also called huCD19; hCD19
T1 sequence (looked up): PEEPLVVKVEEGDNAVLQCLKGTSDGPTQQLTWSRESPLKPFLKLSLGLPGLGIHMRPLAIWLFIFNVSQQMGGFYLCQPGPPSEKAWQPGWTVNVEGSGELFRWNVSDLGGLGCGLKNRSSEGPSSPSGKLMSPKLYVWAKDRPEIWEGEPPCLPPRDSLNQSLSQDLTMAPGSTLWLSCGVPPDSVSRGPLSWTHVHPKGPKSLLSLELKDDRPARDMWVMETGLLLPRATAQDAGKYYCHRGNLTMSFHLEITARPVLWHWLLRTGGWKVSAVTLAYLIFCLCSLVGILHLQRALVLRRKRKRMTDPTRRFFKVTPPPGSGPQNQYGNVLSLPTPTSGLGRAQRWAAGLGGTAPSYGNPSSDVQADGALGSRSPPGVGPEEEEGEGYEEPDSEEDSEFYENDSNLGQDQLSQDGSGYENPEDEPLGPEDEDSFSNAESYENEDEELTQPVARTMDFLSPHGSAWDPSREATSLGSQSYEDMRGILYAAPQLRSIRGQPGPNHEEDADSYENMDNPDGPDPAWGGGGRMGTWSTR

human CD19 [3] = molecular target: T1, human CD19; assay: flow cytometry on 300.19 cells overexpressing human CD19 (figure legend)

Binder | Kd [1] [nM] | n (binding stoichiometry) [1] | further results
B1 |  |  | Kd (CD58 Full ECD): 570 nM
B2 | 610 | 0.96 | 
B3 | 880 | 0.97 | 
B4 | 380 | 0.88 | 
B5 | 600 | 0.83 | 
B6 |  |  | binding result (human CD19 [2]): binds
B7 |  |  | binding result (human CD19 [3]): binds
B8 |  | 0.92 | 
